Assay results taken from FireProtDB (doi:10.1073/pnas.0804396105).
Values joined by “and” are separate entries in the source; they are usually repeats but may differ in a detail not shown here. Equal values may be shown once.

B1: Adenosine receptor A2a, P29274 (parent)
chain: MPIMGSSVYITVELAIAVLAILGNVLVCWAVWLNSNLQNVTNYFVVSLAAADIAVGVLAIPFAITISTGFCAACHGCLFIACFVLVLTQSSIFSLLAIAIDRYIAIRIPLRYNGLVTGTRAKGIIAICWVLSFAIGLTPMLGWNNCGQPKEGKNHSQGCGEGQVACLFEDVVPMNYMVYFNFFACVLVPLLLMLGVYLRIFLAARRQLKQMESQPLPGERARSTLQKEVHAAKSLAIIVGLFALCWLPLHIINCFTFFCPDCSHAPLWLMYLAIVLSHTNSVVNPFIYAYRIREFRQTFRKIIRSHVLRQQEPFKAAGTSARVLAAHGSDGEQVSLRLNGHPPGVWANGSAPHPERRPNGYALGLVSGGSAQESQGNTGLPDVELLSHELKGVCPEPPGLDDPLAQDGAGVS

Variants of: B1
Details: Homo sapiens; pH 7.4; Thermal; Activity; Tris 50 mM; NaCl 0.4 M; structure 4UHR; whole UniProt chain shown

Row | Variant | Tm | change of melting temperature, mutant - wild type (higher = more stable)
1 | S223A T224A Q226A K227A | 24 °C | 4 °C
2 | A54L L235A | 42 °C and 45 °C | 11 °C and 13 °C
3 | A54L K122A | 35 °C and 40 °C | 4 °C and 8 °C
4 | L167A A184L L272A | 27 °C | 7 °C
5 | G114A G118A | 31 °C | 11 °C
6 | A54L V239A | 40 °C and 42 °C | 9 °C and 10 °C
7 | A54L H75A V239A | 37 °C | 6 °C
8 | P260A L267A | 31 °C and 30 °C | –
9 | A54L T88A V239A | 46 °C | 14 °C
10 | A54L K122A L235A | 47 °C and 48 °C | 16 °C
11 | A203L A204L | 40 °C and 42 °C | 9 °C and 10 °C
12 | L167A A184L R199A H230A | 31 °C | 11 °C
13 | Q210A E219A | 31 °C | 11 °C
14 | A54L T88A A204L V239A | – | 10 °C and 15 °C
15 | L167A A184L R199A L241A L272A | 29 °C | 9 °C
16 | A184L A203L | 30 °C | 10 °C
17 | A54L V57A | 31 °C | 0 °C
18 | A54L H75A T88A V239A | 40 °C and 44 °C | 9 °C and 12 °C
19 | T279A N284A | 29 °C | 9 °C
20 | A231L L235A V239A | 38 °C | 7 °C
21 | A54L T88A | 39 °C | 8 °C
22 | K122A L235A | 37 °C | 6 °C
23 | A54L A204L | 33 °C | 2 °C
